# Reference: patent US20230407373A1 (priority 2020, published 2023)
# Read-outs that look alike come from different tables or passages of the source.
# B1: SF1: host protein, UniProt Q15637 (protein, UniProt Q15637 2-639, looked up)
# Splicing factor 1: ATGANATPLDFPSKKRKRSRWNQDTMEQKTVIPGMPTVIPPGLTREQERAYIVQLQIEDLTRKLRTGDLGIPPNPEDRSPSPEPIYNSEGKRLNTREFRTRKKLEEERHNLITEMVALNPDFKPPADYKPPATRVSDKVMIPQDEYPEINFVGLLIGPRGNTLKNIEKECNAKIMIRGKGSVKEGKVGRKDGQMLPGEDEPLHALVTANTMENVKKAVEQIRNILKQGIETPEDQNDLRKMQLRELARLNGTLREDDNRILRPWQSSETRSITNTTVCTKCGGAGHIASDCKFQRPGDPQSAQDKARMDKEYLSLMAELGEAPVPASVGSTSGPATTPLASAPRPAAPANNPPPPSLMSTTQSRPPWMNSGPSESRPYHGMHGGGPGGPGGGPHSFPHPLPSLTGGHGGHPMQHNPNGPPPPWMQPPPPPMNQGPHPPGHHGPPPMDQYLGSTPVGSGVYRLHQGKGMMPPPPMGMMPPPPPPPSGQPPPPPSGPLPPWQQQQQQPPPPPPPSSSMASSTPLPWQQNTTTTTTSAGTGSIPPWQQQQAAAAASPGAPQMQGNPTMVPLPPGVQPPLPPGAPPPPPPPPPGSAGMMYAPPPPPPPPMDPSNFVTMMGMGVAGMPPFGMPPAPPPPPPQN
# B2: SSBP1 (protein, UniProt Q04837 17-148, looked up)
# Single-stranded DNA-binding …: ESETTTSLVLERSLNRVHLLGRVGQDPVLRQVEGKNPVTIFSLATNEMWRSGDSEVYQLGDVSQKTTWHRISVFRPGLRDVAYQYVKKGSRIYLEGKIDYGEYMDKNNVRRQATTIIADNIIFLSDQTKEKE
# Experiments:
# Assay type in all cases: binding
# [1] = tested on: SARS-CoV-2 gRNA and sgRNAs
# SARS-CoV-2 gRNA = conditions: […]; LC-MS/MS; Probe I sample (first 199 lines of Table 2)
# HCoV-OC43 gRNA and sgRNA = conditions: for target (unweighted spectral count, OC43 Probe II capture) / target (unweighted spectral count): tested against no-probe control; for target (unweighted spectral count, OC43 Probe II capture): FDR<10%; for target (unweighted spectral count): OC43 Probe II, infected cells
# gRNA of HCoV-OC43 = conditions: for target (spectral count, OC43 Probe I RNP capture) / background (spectral count, no-probe control): type n_48_v: 48 hours post-infection; for target (spectral count, OC43 Probe I RNP capture): infected cells, unweighted spectral count; for background (spectral count, no-probe control): no-probe control on infected cells
Molecule,"target (unweighted spectral count of the protein in the RNP capture experiment) ([1]; […], LC-MS/MS label-free quantification, probe pool not given)","back-ground (unweighted spectral count of the protein in the control experiment) ([1]; protein background of the control (e.g. no-probe) experiment, […])",target (unweighted spectral count of the protein in the RNP capture) (SARS-CoV-2 gRNA),"target (unweighted spectral count, OC43 Probe II capture) (HCoV-OC43 gRNA and sgRNA; 24 hpi, type n_24_v)","target (unweighted spectral count, OC43 Probe II capture) (HCoV-OC43 gRNA and sgRNA; 36 hpi, type n_36_v)","target (spectral count) (HCoV-OC43 gRNA and sgRNA; type s_36_m, HCoV-OC43-infected HCT-8 cells, 36 hpi, Probe II)","background (spectral count) (HCoV-OC43 gRNA and sgRNA; type s_36_m, uninfected-probe control, 36 hpi, Probe II)","target (spectral count) (gRNA of HCoV-OC43; type g_36_m, HCoV-OC43-infected HCT-8 cells, 36 hpi, Probe I)","background (spectral count) (gRNA of HCoV-OC43; type g_36_m, uninfected-probe control, 36 hpi, Probe I)","target (spectral count, OC43 Probe I RNP capture) (gRNA of HCoV-OC43)","background (spectral count, no-probe control) (gRNA of HCoV-OC43)","target (unweighted spectral count in RNP capture) ([1]; Probe II capture, […], LC-MS/MS LFQ)","background (unweighted spectral count in control) ([1]; no-probe control pull-down, used as background for Probe II)",target (unweighted spectral count) (HCoV-OC43 gRNA and sgRNA; 12 hpi (type n_12_v)),target (unweighted spectral count) (HCoV-OC43 gRNA and sgRNA; 24 hpi (type n_24_v)),"target (unweighted spectral count, OC43 Probe II) (HCoV-OC43 gRNA and sgRNA; type n_48_v, 48 hpi, OC43 Probe II capture on infected cells)","background (unweighted spectral count, no-probe control) (HCoV-OC43 gRNA and sgRNA; type n_48_v, 48 hpi, no-probe control on infected cells)"
B1,6,1,17,4,8,8,1,12,2,12,1,–,–,–,–,–,–
B2,–,–,14,–,12,–,–,–,–,16,3,7,1,44,25,14,3
